Experimental data published in the supplement of paper PMC10065799, “High-throughput profiling of sequence recognition by tyrosine kinases and SH2 domains using bacterial peptide display” (eLife, 2023).

Legend:
Grb2 SH2 = Grb2 SH2 (UniProt P62993); test: SH2 binding enrichment of the phosphorylated peptide, bacterial display (enrichment ratio); higher = better substrate or ligand; peptides without Tyr show the background
c-Src SH2 = test: as above
SHP2-C SH2 = test: as above
Fes = Fes (UniProt P07332); test: phosphorylation enrichment, bacterial display (enrichment ratio); higher = better substrate or ligand; peptides without Tyr show the background
Fyn = Fyn (UniProt P06241); test: as above
EPHB1 = EPHB1 (UniProt P54762); test: as above
c-Abl (mouse) = test: as above
Fer (mouse) = test: as above
Jak2 = Jak2 (UniProt O60674); test: as above
AncSZ = test: as above
FGFR3 = FGFR3 (UniProt P22607); test: as above
FGFR1 = FGFR1 (UniProt P11362); test: as above
EPHB2 = EPHB2 (UniProt P29323); test: as above
Hck = Hck (UniProt P08631); test: as above
MERTK = MERTK (UniProt Q12866); test: as above
c-Src = test: as above
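For SH2 binding enrichment of the phosphorylated peptide, bacterial display in this document: peptide library displayed on the E. coli surface as eCPX fusions, selected cells deep-sequenced, score is each peptide's frequency after selection divided by its frequency in the input.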
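For phosphorylation enrichment, bacterial display in this document: 11-residue human phosphosite peptides and single-mutation variants displayed on the E. coli surface, counted by deep sequencing, each peptide's frequency after selection divided by its frequency in the unselected input library; frequency after pTyr selection over input frequency; kinase dosed for 20-30% of maximal phosphorylation in three min.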

Chain of Hck (P08631 whole entry, looked up): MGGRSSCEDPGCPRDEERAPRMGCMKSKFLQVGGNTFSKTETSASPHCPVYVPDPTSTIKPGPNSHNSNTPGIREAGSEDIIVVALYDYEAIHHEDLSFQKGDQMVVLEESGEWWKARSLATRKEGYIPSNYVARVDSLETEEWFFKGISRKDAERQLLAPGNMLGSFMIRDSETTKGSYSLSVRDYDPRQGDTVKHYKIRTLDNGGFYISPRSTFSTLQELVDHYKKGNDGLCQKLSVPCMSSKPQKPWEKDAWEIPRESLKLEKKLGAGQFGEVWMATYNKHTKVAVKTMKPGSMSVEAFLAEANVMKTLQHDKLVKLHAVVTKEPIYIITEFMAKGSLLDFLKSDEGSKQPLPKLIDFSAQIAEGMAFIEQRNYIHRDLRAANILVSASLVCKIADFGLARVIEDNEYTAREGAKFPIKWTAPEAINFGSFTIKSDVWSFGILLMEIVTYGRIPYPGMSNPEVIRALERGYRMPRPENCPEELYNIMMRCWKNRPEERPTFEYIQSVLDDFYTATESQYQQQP
Chain of MERTK (Q12866 whole entry, looked up): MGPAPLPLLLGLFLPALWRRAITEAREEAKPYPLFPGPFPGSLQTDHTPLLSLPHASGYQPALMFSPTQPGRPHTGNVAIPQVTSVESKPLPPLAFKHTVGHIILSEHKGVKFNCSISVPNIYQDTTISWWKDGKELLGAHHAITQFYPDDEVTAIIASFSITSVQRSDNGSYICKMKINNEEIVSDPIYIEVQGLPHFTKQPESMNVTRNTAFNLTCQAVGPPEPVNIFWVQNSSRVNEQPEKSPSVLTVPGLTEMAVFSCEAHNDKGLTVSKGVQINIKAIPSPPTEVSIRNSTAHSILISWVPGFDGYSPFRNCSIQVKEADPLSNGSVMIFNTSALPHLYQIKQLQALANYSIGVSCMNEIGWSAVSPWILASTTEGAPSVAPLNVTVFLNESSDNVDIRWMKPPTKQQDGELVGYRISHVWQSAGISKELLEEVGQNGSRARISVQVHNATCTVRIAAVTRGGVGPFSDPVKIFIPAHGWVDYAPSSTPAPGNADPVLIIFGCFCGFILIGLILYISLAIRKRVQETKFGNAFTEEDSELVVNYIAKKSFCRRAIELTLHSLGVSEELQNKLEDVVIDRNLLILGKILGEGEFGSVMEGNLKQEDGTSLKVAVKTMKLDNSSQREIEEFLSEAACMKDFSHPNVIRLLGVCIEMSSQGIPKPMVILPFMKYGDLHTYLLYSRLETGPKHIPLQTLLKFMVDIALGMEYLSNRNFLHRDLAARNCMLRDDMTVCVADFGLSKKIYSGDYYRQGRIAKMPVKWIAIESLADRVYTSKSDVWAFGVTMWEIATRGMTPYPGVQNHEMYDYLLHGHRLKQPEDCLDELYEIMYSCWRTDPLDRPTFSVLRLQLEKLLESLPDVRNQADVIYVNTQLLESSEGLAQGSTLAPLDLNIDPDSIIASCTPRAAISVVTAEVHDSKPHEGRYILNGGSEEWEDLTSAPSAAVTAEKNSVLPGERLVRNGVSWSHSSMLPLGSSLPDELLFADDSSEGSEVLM
Chain of Jak2 (O60674 whole entry, looked up): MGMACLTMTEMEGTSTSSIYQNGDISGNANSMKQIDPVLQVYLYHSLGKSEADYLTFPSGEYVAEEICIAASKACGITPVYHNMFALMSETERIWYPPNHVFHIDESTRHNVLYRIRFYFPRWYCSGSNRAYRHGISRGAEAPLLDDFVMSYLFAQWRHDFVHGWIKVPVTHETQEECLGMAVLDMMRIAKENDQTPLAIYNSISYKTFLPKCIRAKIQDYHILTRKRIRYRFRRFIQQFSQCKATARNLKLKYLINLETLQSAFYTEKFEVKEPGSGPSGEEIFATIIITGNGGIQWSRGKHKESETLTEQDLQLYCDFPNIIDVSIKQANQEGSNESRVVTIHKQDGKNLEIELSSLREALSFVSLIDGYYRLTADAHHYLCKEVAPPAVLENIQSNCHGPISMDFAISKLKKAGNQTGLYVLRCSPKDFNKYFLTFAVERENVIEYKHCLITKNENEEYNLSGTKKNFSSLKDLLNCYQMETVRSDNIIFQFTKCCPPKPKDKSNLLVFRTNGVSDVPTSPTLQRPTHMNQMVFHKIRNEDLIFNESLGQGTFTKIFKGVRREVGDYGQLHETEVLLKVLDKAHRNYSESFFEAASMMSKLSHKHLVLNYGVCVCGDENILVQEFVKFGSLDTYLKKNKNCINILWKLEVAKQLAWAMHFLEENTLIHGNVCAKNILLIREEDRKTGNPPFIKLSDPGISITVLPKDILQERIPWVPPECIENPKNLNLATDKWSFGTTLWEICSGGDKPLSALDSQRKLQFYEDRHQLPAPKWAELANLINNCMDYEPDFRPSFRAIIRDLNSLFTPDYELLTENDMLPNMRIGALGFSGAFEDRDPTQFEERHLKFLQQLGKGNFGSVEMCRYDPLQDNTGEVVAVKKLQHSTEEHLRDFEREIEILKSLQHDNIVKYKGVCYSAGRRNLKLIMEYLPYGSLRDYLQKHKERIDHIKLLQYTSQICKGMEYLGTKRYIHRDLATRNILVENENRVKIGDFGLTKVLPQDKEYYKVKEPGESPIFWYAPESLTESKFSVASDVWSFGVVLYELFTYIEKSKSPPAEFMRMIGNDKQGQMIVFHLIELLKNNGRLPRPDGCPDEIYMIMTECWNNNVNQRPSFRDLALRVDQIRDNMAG
Chain of Fes (P07332 whole entry, looked up): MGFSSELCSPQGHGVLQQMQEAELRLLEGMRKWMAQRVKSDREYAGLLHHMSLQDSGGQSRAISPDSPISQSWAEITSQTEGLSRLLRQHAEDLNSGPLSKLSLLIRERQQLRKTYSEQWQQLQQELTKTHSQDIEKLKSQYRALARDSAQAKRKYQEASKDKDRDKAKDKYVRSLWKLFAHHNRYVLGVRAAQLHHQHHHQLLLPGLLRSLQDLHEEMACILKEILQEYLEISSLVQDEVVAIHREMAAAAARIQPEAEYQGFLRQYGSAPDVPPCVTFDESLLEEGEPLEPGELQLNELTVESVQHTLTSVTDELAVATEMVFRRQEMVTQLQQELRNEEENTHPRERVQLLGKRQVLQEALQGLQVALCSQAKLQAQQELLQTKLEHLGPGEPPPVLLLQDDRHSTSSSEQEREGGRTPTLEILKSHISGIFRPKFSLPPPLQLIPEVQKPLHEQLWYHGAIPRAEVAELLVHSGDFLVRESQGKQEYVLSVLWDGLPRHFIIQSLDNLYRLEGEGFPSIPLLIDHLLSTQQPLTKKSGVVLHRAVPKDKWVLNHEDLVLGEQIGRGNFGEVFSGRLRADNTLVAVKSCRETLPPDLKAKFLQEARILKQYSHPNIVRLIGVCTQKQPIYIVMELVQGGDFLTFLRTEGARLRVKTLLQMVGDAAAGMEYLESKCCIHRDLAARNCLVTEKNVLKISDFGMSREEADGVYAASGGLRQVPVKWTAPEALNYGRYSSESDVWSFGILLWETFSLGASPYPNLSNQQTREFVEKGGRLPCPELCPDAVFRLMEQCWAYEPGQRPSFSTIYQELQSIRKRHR
Chain of Fyn (P06241 whole entry, looked up): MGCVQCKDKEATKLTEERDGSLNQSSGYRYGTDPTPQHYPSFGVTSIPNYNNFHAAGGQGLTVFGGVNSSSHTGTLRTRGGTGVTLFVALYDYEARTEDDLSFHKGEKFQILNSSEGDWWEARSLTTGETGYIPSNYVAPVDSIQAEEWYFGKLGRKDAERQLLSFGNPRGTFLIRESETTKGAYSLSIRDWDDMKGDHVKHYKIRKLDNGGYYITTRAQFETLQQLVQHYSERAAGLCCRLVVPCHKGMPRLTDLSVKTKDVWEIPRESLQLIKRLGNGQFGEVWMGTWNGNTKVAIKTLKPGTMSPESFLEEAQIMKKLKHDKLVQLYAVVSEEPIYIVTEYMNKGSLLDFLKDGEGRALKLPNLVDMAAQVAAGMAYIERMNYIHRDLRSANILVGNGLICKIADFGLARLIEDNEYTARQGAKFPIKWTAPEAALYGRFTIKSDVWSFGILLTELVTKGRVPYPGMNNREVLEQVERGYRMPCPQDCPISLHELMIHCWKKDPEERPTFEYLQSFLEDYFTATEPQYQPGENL
Chain of EPHB2 (P29323 whole entry, looked up): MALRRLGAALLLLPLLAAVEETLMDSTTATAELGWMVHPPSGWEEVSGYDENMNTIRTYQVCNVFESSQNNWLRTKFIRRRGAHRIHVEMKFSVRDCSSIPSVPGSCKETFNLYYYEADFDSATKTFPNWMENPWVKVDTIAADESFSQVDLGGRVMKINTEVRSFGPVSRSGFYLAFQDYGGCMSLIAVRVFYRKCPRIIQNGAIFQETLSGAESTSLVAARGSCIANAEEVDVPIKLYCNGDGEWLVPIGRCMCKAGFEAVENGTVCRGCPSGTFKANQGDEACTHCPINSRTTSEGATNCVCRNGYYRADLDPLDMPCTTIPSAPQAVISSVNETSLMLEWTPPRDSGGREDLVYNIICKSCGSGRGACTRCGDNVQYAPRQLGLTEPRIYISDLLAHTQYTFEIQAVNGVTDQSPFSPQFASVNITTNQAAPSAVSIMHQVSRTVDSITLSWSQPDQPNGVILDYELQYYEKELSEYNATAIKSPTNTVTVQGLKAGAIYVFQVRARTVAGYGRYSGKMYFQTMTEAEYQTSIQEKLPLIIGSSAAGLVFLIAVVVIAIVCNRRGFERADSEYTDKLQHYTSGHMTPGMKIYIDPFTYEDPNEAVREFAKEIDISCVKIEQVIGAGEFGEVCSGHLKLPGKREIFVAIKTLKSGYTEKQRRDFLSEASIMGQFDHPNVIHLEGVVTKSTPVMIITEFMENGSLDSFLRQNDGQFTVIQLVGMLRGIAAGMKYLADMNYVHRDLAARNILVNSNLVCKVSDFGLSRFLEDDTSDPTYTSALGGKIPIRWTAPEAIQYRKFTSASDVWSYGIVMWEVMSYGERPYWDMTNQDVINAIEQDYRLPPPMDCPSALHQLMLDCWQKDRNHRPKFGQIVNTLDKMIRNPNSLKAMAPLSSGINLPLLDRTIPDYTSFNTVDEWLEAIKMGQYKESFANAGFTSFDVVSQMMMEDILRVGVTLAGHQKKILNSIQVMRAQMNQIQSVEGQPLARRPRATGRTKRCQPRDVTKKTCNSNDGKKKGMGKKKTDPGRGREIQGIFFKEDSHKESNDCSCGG

| Sequence | SH2 binding enrichment (Grb2 SH2) | SH2 binding enrichment (c-Src SH2) | SH2 binding enrichment (SHP2-C SH2) | phosphorylation enrichment (Fes) | phosphorylation enrichment (Fyn) | phosphorylation enrichment (EPHB1) | phosphorylation enrichment (c-Abl (mouse)) | phosphorylation enrichment (Fer (mouse)) | phosphorylation enrichment (Jak2) | phosphorylation enrichment (AncSZ) | phosphorylation enrichment (FGFR3) | phosphorylation enrichment (FGFR1) | phosphorylation enrichment (EPHB2) | phosphorylation enrichment (Hck) | phosphorylation enrichment (MERTK) | phosphorylation enrichment (c-Src) |
| --- | --- | --- | --- | --- | --- | --- | --- | --- | --- | --- | --- | --- | --- | --- | --- | --- |
| SISLRYEGRVF [ABL1_Y167_YF] | 1.05 | 0.68 | 0.926 | 1.26 | 0.438 | 0.636 | 0.696 | 0.686 | 0.918 | 1.25 | 0.838 | 0.524 | 0.703 | 0.507 | 0.384 | 0.372 |
| LSRDVYEEDSY [RET_Y900] | 0.652 | 0.978 | 0.726 | 1.39 | 0.503 | 0.535 | 0.906 | 0.416 | 1.55 | 1.39 | 0.968 | 0.656 | 0.685 | 0.771 | 0.699 | 0.719 |
| SDGKRYRVPSD [HHIPL2_Y395_H391D] | 0.781 | 0.57 | 0.608 | 0.522 | 0.338 | 0.357 | 0.44 | 0.408 | 0.771 | 0.555 | 0.426 | 0.377 | 0.303 | 0.346 | 0.409 | 0.384 |
| AVIADYMFWLG [SPATA16_Y290_M286V] | 1.42 | 1 | 1.4 | 1.3 | 0.852 | 6.08 | 1.17 | 2 | 3.42 | 2.25 | 10.7 | 13.1 | 12.4 | 1.34 | 2.51 | 1.17 |
| NFRTIYVNANE [KCNH2_Y475_T474I] | 19 | 3.07 | 8.36 | 0.775 | 0.423 | 0.543 | 0.509 | 0.428 | 0.717 | 0.659 | 0.529 | 0.417 | 0.5 | 0.525 | 0.367 | 0.44 |
| TQFWLYFAGNL [SLC25A5_Y112] | 0.742 | 0.509 | 0.557 | 1.57 | 0.376 | 0.681 | 1.22 | 0.498 | 1.64 | 1.23 | 1 | 0.534 | 0.665 | 0.479 | 0.576 | 0.652 |
| NQSVRYDSSLK [ABCC8_Y1353_L1349Q] | 0.675 | 0.404 | 0.609 | 0.601 | 0.461 | 0.484 | 0.487 | 0.57 | 0.556 | 0.523 | 0.456 | 0.341 | 0.491 | 0.429 | 0.423 | 0.433 |
| RRIHSYRGQLW [VHL_Y112_H115Q] | 0.637 | 0.343 | 0.45 | 0.813 | 0.883 | 0.491 | 0.906 | 0.617 | 0.925 | 1.25 | 0.596 | 0.536 | 0.438 | 0.664 | 0.535 | 0.776 |
| GFEEAYSVFKK [PAFAH1B1_Y28_YF] | 1.03 | 0.605 | 1.76 | 0.696 | 1.29 | 0.339 | 0.756 | 0.365 | 0.514 | 0.803 | 0.412 | 0.423 | 0.379 | 2.51 | 0.544 | 3.97 |

More lines, main results first:

| SH2 binding enrichment (Grb2 SH2) | SH2 binding enrichment (c-Src SH2) | SH2 binding enrichment (SHP2-C SH2) | Sequence | phosphorylation enrichment (Fes) | phosphorylation enrichment (Fyn) | phosphorylation enrichment (EPHB1) | phosphorylation enrichment (c-Abl (mouse)) | phosphorylation enrichment (Fer (mouse)) | phosphorylation enrichment (Jak2) | phosphorylation enrichment (AncSZ) | phosphorylation enrichment (FGFR3) | phosphorylation enrichment (FGFR1) | phosphorylation enrichment (EPHB2) | phosphorylation enrichment (Hck) | phosphorylation enrichment (MERTK) | phosphorylation enrichment (c-Src) |
| --- | --- | --- | --- | --- | --- | --- | --- | --- | --- | --- | --- | --- | --- | --- | --- | --- |
| 1.02 | 0.783 | 0.962 | LQLLGYRPVYS [CHST6_Y358] | 1.24 | 0.916 | 0.954 | 0.911 | 0.49 | 0.979 | 1.29 | 0.91 | 0.718 | 0.873 | 0.581 | 0.426 | 0.559 |
| 1.85 | 1.61 | 1.99 | GRIHSYRGHLW [VHL_Y112_R107G] | 0.712 | 0.38 | 0.387 | 0.51 | 0.373 | 0.535 | 0.585 | 0.438 | 0.363 | 0.392 | 0.359 | 0.357 | 0.347 |
| 0.696 | 0.356 | 0.528 | GRRNTYFASIA [ACADM_Y352_YF] | 0.556 | 0.551 | 0.346 | 0.588 | 0.481 | 0.5 | 0.722 | 0.507 | 0.439 | 0.423 | 0.423 | 0.466 | 0.615 |
| 0.888 | 0.615 | 0.862 | VITTLYIGFLG [KCNQ1_Y267_L262V] | 1.25 | 1.34 | 0.759 | 0.931 | 0.605 | 1.15 | 1.18 | 0.874 | 0.692 | 0.636 | 1.32 | 0.659 | 1.84 |
| 1.03 | 0.388 | 0.581 | RGKDSYETSKL [SPP1_Y225_Q229K] | 0.986 | 0.695 | 0.983 | 1.49 | 0.699 | 1.07 | 1.26 | 0.788 | 0.613 | 0.678 | 0.669 | 0.62 | 0.571 |
| 0.726 | 0.394 | 0.681 | QDLLLYQTHSE [PKHD1_Y255_F253L] | 1.54 | 1.16 | 1.27 | 0.888 | 1.81 | 1.61 | 1.86 | 1.28 | 0.713 | 1.94 | 1.48 | 0.745 | 1.77 |
| 0.805 | 0.859 | 0.682 | AMCVRYDGVEV [ADAMTSL2_Y594] | 1.26 | 0.583 | 0.764 | 0.817 | 0.791 | 1 | 1.19 | 0.781 | 0.7 | 0.735 | 0.644 | 0.49 | 0.542 |
| 0.71 | 0.425 | 0.5 | RRVLVYRGRGA [QDPR_Y16_G17R] | 0.991 | 0.712 | 0.818 | 0.829 | 0.618 | 0.692 | 0.963 | 0.779 | 0.758 | 0.714 | 0.782 | 0.708 | 0.754 |
